We go through five proteins from doi:10.1101/567099 (bioRxiv, 2019).

The data set “SEC” concerns the molecule itself. Put plainly: SEC. On the technique in general: Size exclusion chromatography separates by hydrodynamic size, large species first.
Data set [1] concerns the molecule itself. As to the kind of experiment: negative-stain electron microscopy.

Residue numbers refer to the chain shown, from its start. Numbers in names are those of the source.

B1: MBP-TorsinA (human TorsinA residues 51-332, N-terminal MBP tag) (domain or fragment)
chain: GQKRSLSREALQKDLDDNLFGQHLAKKIILNAVFGFINNPKPKKPLTLSLHGWTGTGKNFVSKIIAENIYEGGLNSDYVHLFVATLHFPHASNITLYKDQLQLWIRGNVSACARSIFIFDEMDKMHAGLIDAIKPFLDYYDLVDGVSYQKAMFIFLSNAGAERITDVALDFWRSGKQREDIKLKDIEHALSVSVFNNKNSGFWHSSLIDRNLIDYFVPFLPLEYKHLKMCIRVEMQSRGYEIDEDIVSRVAEEMTFFPKEERVFSDKGCKTVFTKLDYYYDD
On to B1, for which, in the data set “SEC”, the binding result was “binds”.

B2: TorsinA H140N (human, residues 51-332) (domain or fragment)
chain: B1 chain with H90N
In the case of B2, the binding result in data set [1] is on record as “binds”.

B3: TorsinA K174E (human, residues 51-332) (domain or fragment)
chain: B1 chain with K124E
Regarding B3, the binding result in data set [1] is recorded as “binds”.

B4: TorsinA (human, residues 51-332) after cleavage of the MBP tag with 3C protease (domain or fragment)
chain: B1 chain
With B4, the binding result in data set [1] was “binds”.

B5: TorsinA K174A (human, residues 51-332) (domain or fragment)
chain: B1 chain with K124A
Turning to B5, in data set [1], the binding result is “binds”.
